Results taken from patent US20240368233A1 (University of Washington, published 2024).
Where “and” joins values, the source holds several entries; their conditions need not be identical. Identical values can stand only once.

Legend:
[1] = molecular target: the molecule itself; assay: SEC titration of the protomer alone at several injection concentrations (Superdex 200, normalised A230); self-association
29B53 = molecular target: T1, 29B53; assay: SEC titration (Superdex 200, normalised A230) of the complexes 274A53/274B53 and 29A53/29B53
T1 construct: also called LHD29B53
T1 chain: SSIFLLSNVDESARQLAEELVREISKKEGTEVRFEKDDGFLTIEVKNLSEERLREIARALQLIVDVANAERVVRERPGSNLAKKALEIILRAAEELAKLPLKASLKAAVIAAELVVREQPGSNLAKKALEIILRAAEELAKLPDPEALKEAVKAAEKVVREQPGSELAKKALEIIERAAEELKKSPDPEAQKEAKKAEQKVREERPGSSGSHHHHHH

DFA-1 = molecular target: T2, DFA-1; assay: SEC of mixed components; trimer listed in Table 6
T2 construct: Bivalent connector
T2 chain: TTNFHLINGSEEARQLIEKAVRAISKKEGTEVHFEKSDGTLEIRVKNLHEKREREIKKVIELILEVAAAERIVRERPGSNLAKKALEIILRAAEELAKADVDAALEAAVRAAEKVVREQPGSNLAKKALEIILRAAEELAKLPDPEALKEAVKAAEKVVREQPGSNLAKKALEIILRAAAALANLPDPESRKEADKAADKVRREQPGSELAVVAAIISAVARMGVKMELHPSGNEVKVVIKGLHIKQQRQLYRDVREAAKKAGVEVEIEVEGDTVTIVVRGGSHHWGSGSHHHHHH
Description: (§1) Complexes and individual components were diluted in 20 mM Tris pH 8.0, 100 mM NaCl. After o/n equilibration of the mixtures at room temperature or 4 degrees C., 500 ul of sample was injected onto a Superdex™ 200 10/300 increase GL (dimers, linear assemblies) or Superose™ 6 increase 10/300 GL (symmetric assemblies) (all columns from GE healthcare) using the absorbance at 230 nm or 473 nm (for GFP tagged components) as read-out. Dimers were mixed at monomer concentrations of 5 μM or higher. Trimer and ABCD tetramer mixtures contained 5 μM of the bivalent connector, and 7.5 μM of each terminal cap (lower absolute concentrations with the same ratios were used for some trimers). ABCA tetramer mixtures contained 5 μM per bivalent connector and 15 μM terminal cap. The hexamer mixture contained 3 μM of components C and D, 3.6 μM of B and E, and 4.4 μM of A and F. The branched assembly shown in FIG. 4A contained 2.8 μM of the trivalent connector and 4 μM of each cap. For the exchange experiment shown in FIG. 5A, the ABC trimer was preincubated at concentrations of 6 μM B and 9 μM each of A and C. C′ was then added to reach a final concentration of 2 μM B, 3 μM each of A and C, and 6 μM C′.

[2] = molecular target: the molecule itself; assay: SEC titration (Superdex 200, normalised A230) of 274B53 and 29B53 alone; self-association
TF3 = molecular target: T3, TF3; assay: SEC of the trivalent connector TF3, its three caps and the full mixture, with SDS-PAGE of the fractions; components named in the legend
T3 construct: Trivalent connector
T3 chain: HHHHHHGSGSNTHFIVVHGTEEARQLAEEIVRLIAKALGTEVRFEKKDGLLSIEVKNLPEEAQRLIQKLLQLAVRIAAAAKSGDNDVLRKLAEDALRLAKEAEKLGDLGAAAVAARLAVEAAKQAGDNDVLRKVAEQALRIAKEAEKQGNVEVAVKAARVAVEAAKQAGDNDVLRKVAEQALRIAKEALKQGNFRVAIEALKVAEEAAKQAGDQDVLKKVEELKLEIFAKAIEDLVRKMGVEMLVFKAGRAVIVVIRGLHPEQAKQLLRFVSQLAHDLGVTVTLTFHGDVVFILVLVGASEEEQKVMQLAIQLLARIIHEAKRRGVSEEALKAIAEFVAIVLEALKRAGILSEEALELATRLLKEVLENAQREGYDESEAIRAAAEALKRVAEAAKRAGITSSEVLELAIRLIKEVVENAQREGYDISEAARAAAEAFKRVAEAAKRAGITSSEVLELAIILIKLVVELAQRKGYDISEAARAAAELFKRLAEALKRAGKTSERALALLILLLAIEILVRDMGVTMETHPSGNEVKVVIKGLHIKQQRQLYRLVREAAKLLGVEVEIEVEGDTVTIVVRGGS

DF275A-1 = molecular target: T4, DF275A-1; assay: SEC of partial and full mixtures followed at 473 nm (GFP on component C) and negative-stain EM; components as named for the hexamer in the legend of FIG. 16C and in Table 6
T4 construct: Bivalent connector
T4 chain: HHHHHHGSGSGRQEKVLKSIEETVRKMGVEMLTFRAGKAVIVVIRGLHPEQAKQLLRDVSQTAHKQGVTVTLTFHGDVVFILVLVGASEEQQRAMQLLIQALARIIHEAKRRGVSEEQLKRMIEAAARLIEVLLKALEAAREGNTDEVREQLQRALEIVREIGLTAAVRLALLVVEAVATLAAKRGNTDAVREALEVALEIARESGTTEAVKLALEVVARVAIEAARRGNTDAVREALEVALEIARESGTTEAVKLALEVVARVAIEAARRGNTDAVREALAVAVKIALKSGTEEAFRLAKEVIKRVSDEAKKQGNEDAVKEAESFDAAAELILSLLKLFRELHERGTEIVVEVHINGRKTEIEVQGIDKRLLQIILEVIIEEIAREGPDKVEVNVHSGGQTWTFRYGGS
Description: as §1
SEC peak fractions were concentrated prior to negative stain EM screening. Samples were then immediately diluted 5 to 150 times in TBS buffer (25 mM Tris pH 8.0, 25 mM NaCl) depending on sample concentration. […]

[3] = molecular target: T5, LHD101 chainA, split luciferase reporter construct; assay: split luciferase equilibrium titration in E. coli lysate, constant partner at 1 nM; first-named construct read as the titrated one; no unit beside the number, M from the axis '[Titrated] / M'
T5 construct: not shown: N-terminal Strep-tag and sfGFP; GS-linker and smBiT or lgBiT
T5 chain: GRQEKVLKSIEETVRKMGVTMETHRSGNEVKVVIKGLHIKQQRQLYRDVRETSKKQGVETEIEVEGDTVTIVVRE

B1: 29A53 (designed binder)
chain: TWQWVLINISEEARQLIEKAVRAISKKEGTEVHFEKDDGVLHIRVKNLHEKRAREIHKVAKLILEVAAAERIVRERPGSNLAKKALEIILRAAEELAKADVDAALEAAVRAAEKVVREQPGSNLAKKALEIILRAAEELAKLPDPEALKEAVKAAEKVVREQPGSELAKKALEIIERAAEELKKSPDPEAQKEAKKAEQKVREERPGSSGSHHHHHH
notes: also called LHD29A53
B1: binds [1]; binds (29B53).

B2: 274B53 (designed binder)
chain: NTHFIVVHGSEDAAQLAEELVREISKKEGTEVRFEKKDGLLSIEVKNLSEERQREIQKALQLVQDVANAERVVRERPGSNLAKKALEIILRAAEELAKLDLKASLKAAVRAAEKVVREQPGSNLAKKALEIILRAAEELAKLPDPEALKEAVKAAEKVVREQPGSELAKKALEIIERAAEELKKSPDPEAQKEAKKAEQKVREESGSHHWGSGLNDIFEAQKIEWHEGSHHHHHH
notes: also called LHD274B DHR53 stop
B2: binds (DFA-1); binds [2].

B3: 275B (designed binder)
chain: GGSDVEWRYTNISEETQQKSAEFVLEIALRAGTGVTFTTRQGELQIQVHNLDELLAIAMLCYTLGLLLGDHRVQELAKRAVEAWERGDEERVKKLLIEALKRLVETAEEVVRERPGSNLAKLALEIILRAAEALARAEDPESLKEAVKAAEKVVREQPGSNLAKKALEIILRAAEELAKLPDPEALKEAVKAAEKVVREQPGSELAKKALEIIERAAEELKKSPDPEAQKEAKKAEQKVREERPGSGGSGSHHWGSGSHHHHHH
notes: also called LHD275 B; LHD275B
B3: binds (TF3); binds [1]; binds (DF275A-1).

B4: LHD101 chainB, split luciferase reporter construct (designed binder)
chain: GRQEKVLKSIEETVRKMGVTMETHRSGNEVKVVIKGLHESQQEQLLEDVLRTAEKQGVRVRIRFKGDTVTIVVRE
notes: not shown: N-terminal Strep-tag and sfGFP; GS-linker and smBiT or lgBiT
In the case of B4, the Kd [3] is reported as 8 nM and 11 nM.
